Assay results published in patent US20220273733A1.

B1: EndoBI-1 (endo-β-N-acetylglucosaminidase from B. infantis), enzyme solution used in Example 1 (enzyme)
chain: DAVSPTQETIQSTGRHFMVYYRAWRDVTMKGVNTDLPDDNWISMYDIPYGVDVVNIFSYVPSGQEEQAQPFYDKLKSDYAPYLHSRGIKLVRGIDYTGVAVNGFRTFMKEQNKTESEATEADYDAYAKQVIDKYMISVGLDGLDIDMEAHPNDADVKISDNVIRALSKHIGPKSAKPDTTMFLYDTNGSYLNPFKNVAECFDYVAYQQYGSSSDRTARAAADYQPYIGNEFVPGLTFPEEGDMNNRWYDATEPYEESHFYQVASYVREHNLGGMFVYALDRDGRNYDEDLRRIVPSNLLWTKTAIAESEGMALDTAKTAANHYLDRMSLRQVIDDNAASADKARDMVGKAANLYETNKAVLGGDYGEGFSNTYDPTLEAGLLGIDISVLQQQIDKSSEIIGADTAESDAKTALRMARDAAIDGLTGKIYTADQVSAWSQALKAALDATVPVPTPDSTDQNGNRDKVTNHKVQGQPKQLSATGISTDIIVAVGVTLAIAGVALSLSRKLS
B2: EndoBI-1 of B. infantis EVC001 as acting in the gut of EVC001-fed infants (enzyme)
chain: B1 chain

What was measured:
[1] = target: soymeal proteins (ethanol-precipitated, heat-denatured soy-meal protein mixture)
[2] = target: lactoferrin (glycosylated, of human milk) (human) (UniProt P02788)

| Binder | Glycan Yield (ug), released glycans measured by phenol sulphuric total carbohydrate assay [1] [µg] | N-glycans in fecal samples (nano-HPLC-Chip-TOF) compared with the lactoferrin N-glycan library (out of 18 N-glycans) [2] |
| --- | --- | --- |
| B1 | 75 | – |
| B2 | – | 14 |
